Where two headings read alike, the source gives them in different places.

One data set has as its target Asp105 (UniProt position 105, GLVVYDYQQLL). Kind of data set: CD spectroscopy. The settings on record: 25 °C; Free folded domain, 4.2-10 µmol/L protein.
Data set [1] deals with rh wildtype Bri2 BRICHOS (human) (UniProt Q9Y287). The data set can be described thus: SEC.
Data set [2] shares this target. Kind of data set: SEC. The source holds these as a separate data set.

Take “Prosurfactant protein C (proSP-C) BRICHOS domain, wild type (Homo sapiens)”: the pKa result with Asp105 is recorded as “about 6.1”.

What is called stoichiometry N is a count of units in the complex or per binding partner. Regarding “rh wildtype Bri2 BRICHOS (from UniProt Q9Y287 113-231) (domain or fragment)”, the stoichiometry N in data set [1] and in data set [2] was 2 each time.
